# Reference: patent US20250382344A1, “Soluble GLP1/GIP/NPY2 Receptor Triple Agonists” (Boehringer Ingelheim International GmH, priority 2024, published 2025)
# *1 amine or outer side, *2 acyl side, *3 side chain or, on linkers, in order; H or OH if unused. Where no end group is shown, it is not given here. Side-chain parts run from the residue outwards. [ ]: non-standard residue; d: D form. The star is where a group is joined. C20 diacid = O=C(O)CCCCCCCCCCCCCCCCCCC(=O)*; C18 diacid = O=C(O)CCCCCCCCCCCCCCCCC(=O)*; γGlu = O=C(O)[C@H](CCC(=O)[*:2])N[*:1]; NMeQ = CN[C@@H](CCC(N)=O)C(=O)O; AEEA = NCCOCCOCC(=O)O; Aib = CC(C)(N)C(=O)O
# T1: human GIP receptor (human, UniProt P48546 22-466)
# T1 sequence (looked up): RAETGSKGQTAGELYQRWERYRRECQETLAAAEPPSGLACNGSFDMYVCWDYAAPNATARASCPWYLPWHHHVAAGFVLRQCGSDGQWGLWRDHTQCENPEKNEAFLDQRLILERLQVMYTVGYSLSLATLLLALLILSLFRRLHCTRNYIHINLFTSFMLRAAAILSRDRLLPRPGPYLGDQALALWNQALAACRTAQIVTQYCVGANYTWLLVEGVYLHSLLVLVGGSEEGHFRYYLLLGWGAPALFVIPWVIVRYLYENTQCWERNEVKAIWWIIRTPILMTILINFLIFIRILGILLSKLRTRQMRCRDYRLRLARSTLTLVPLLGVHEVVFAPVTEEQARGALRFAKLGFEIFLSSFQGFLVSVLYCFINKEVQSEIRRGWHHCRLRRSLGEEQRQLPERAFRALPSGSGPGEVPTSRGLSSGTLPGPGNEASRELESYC
# T2: human neuropeptide Y2 receptor (human, UniProt P49146 1-381)
# T2 sequence (looked up): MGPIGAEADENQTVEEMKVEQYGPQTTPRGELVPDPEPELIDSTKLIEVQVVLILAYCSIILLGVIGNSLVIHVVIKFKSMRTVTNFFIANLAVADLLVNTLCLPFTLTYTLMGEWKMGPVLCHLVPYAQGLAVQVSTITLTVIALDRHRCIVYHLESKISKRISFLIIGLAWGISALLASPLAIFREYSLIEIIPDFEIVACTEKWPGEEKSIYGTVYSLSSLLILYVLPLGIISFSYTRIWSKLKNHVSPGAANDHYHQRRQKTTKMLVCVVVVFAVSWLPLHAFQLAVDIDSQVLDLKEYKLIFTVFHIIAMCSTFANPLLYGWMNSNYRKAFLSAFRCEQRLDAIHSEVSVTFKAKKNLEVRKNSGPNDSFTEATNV
# Tests used:
# Assay in all cases: cell-based or functional assay
# human GLP-1 receptor = human GLP-1 receptor (human, UniProt P43220 24-463)
# human GIP receptor = target: T1, human GIP receptor
# [1] = target: T2, human neuropeptide Y2 receptor
"EC50, CreLuc reporter, 0.5% hP (human GLP-1 receptor) [nM]","EC50, CreLuc reporter, 100% hP (human GLP-1 receptor) [nM]","EC50, CreLuc reporter, 0.5% hP (human GIP receptor) [nM]","EC50, CreLuc reporter, 0.5% hP [1] [nM]","EC50, CreLuc reporter, 100% hP [1] [nM]","EC50, CreLuc reporter, 100% hP (human GIP receptor) [nM]",Binder
1.8,10,0.5,82.1,657,–,Y[Aib]EGTFTSDYSI[Aib]LEKQAQ[Aib]AFVRHLINK([γGlu-γGlu-γGlu-γGlu-γGlu-γGlu-C20 diacid])[Aib]TR[NMeQ]RY-NH2 (N-terminus assumed; SMILES CC[C@H](C)[C@H](NC(=O)[C@H](CC(C)C)NC(=O)[C@H](Cc1c[nH]cn1)NC(=O)[C@H](CCCNC(=N)N)NC(=O)[C@@H](NC(=O)[C@H](Cc1ccccc1)NC(=O)[C@H](C)NC(=O)C(C)(C)NC(=O)[C@H](CCC(N)=O)NC(=O)[C@H](C)NC(=O)[C@H](CCC(N)=O)NC(=O)[C@H](CCCCN)NC(=O)[C@H](CCC(=O)O)NC(=O)[C@H](CC(C)C)NC(=O)C(C)(C)NC(=O)[C@@H](NC(=O)[C@H](CO)NC(=O)[C@H](Cc1ccc(O)cc1)NC(=O)[C@H](CC(=O)O)NC(=O)[C@H](CO)NC(=O)[C@@H](NC(=O)[C@H](Cc1ccccc1)NC(=O)[C@@H](NC(=O)CNC(=O)[C@H](CCC(=O)O)NC(=O)C(C)(C)NC(=O)[C@@H](N)Cc1ccc(O)cc1)[C@@H](C)O)[C@@H](C)O)[C@@H](C)CC)C(C)C)C(=O)N[C@@H](CC(N)=O)C(=O)N[C@@H](CCCCNC(=O)CC[C@H](NC(=O)CC[C@H](NC(=O)CC[C@H](NC(=O)CC[C@H](NC(=O)CC[C@H](NC(=O)CC[C@H](NC(=O)CCCCCCCCCCCCCCCCCCC(=O)O)C(=O)O)C(=O)O)C(=O)O)C(=O)O)C(=O)O)C(=O)O)C(=O)NC(C)(C)C(=O)N[C@H](C(=O)N[C@@H](CCCNC(=N)N)C(=O)N(C)[C@@H](CCC(N)=O)C(=O)N[C@@H](CCCNC(=N)N)C(=O)N[C@@H](Cc1ccc(O)cc1)C(N)=O)[C@@H](C)O) [Compound 114]
–,31.6,0.5,–,27.9,10.3,"YXEGTFTSDYSEXLEKQAQXAFVRHLINKXTRQRY (Aib at 2, 13, 20, 30; Lys29 epsilon-amino: C18DA-gGlu-gGlu-gGlu-gGlu-gGlu-gGlu-eLys; C-terminal amide) [Compound 112]"
0.1,–,–,–,43.7,0.8,"YXEGTFTSDYSIXLEKQAQXAFVRHLINKXTRQRY (Aib at 2, 20, 30; aMeL at 13; Lys29 epsilon-amino: C18DA-gGlu-gGlu-gGlu-gGlu-gGlu-gGlu-eLys; C-terminal amide) [Compound 119]"
0.7,2.3,–,14.2,51.4,3.8,Y[Aib]EGTFTSDYSI[Aib]LEKQAQ[Aib]AFVRHLINK([AEEA-γGlu-γGlu-γGlu-γGlu-C18 diacid])[Aib]TRQRY-NH2 (N-terminus assumed; SMILES CC[C@H](C)[C@H](NC(=O)[C@H](CC(C)C)NC(=O)[C@H](Cc1c[nH]cn1)NC(=O)[C@H](CCCNC(=N)N)NC(=O)[C@@H](NC(=O)[C@H](Cc1ccccc1)NC(=O)[C@H](C)NC(=O)C(C)(C)NC(=O)[C@H](CCC(N)=O)NC(=O)[C@H](C)NC(=O)[C@H](CCC(N)=O)NC(=O)[C@H](CCCCN)NC(=O)[C@H](CCC(=O)O)NC(=O)[C@H](CC(C)C)NC(=O)C(C)(C)NC(=O)[C@@H](NC(=O)[C@H](CO)NC(=O)[C@H](Cc1ccc(O)cc1)NC(=O)[C@H](CC(=O)O)NC(=O)[C@H](CO)NC(=O)[C@@H](NC(=O)[C@H](Cc1ccccc1)NC(=O)[C@@H](NC(=O)CNC(=O)[C@H](CCC(=O)O)NC(=O)C(C)(C)NC(=O)[C@@H](N)Cc1ccc(O)cc1)[C@@H](C)O)[C@@H](C)O)[C@@H](C)CC)C(C)C)C(=O)N[C@@H](CC(N)=O)C(=O)N[C@@H](CCCCNC(=O)COCCOCCNC(=O)CC[C@H](NC(=O)CC[C@H](NC(=O)CC[C@H](NC(=O)CC[C@H](NC(=O)CCCCCCCCCCCCCCCCC(=O)O)C(=O)O)C(=O)O)C(=O)O)C(=O)O)C(=O)NC(C)(C)C(=O)N[C@H](C(=O)N[C@@H](CCCNC(=N)N)C(=O)N[C@@H](CCC(N)=O)C(=O)N[C@@H](CCCNC(=N)N)C(=O)N[C@@H](Cc1ccc(O)cc1)C(N)=O)[C@@H](C)O) [Compound 110]
